Here are results for 2 molecules from US20250011468A1 (Novo Nordisk, published 2025).

Test [1] deals with T1, human plasma-derived FIXa (Haematologic Technologies Inc) (human, UniProt P00740 47-191; P00740 227-461). Nature of the test: cell-based or functional assay.
The target of test [2] is T1, human plasma-derived FIXa (Haematologic …). Nature of the test: cell-based or functional assay. This is another data set of the same source.
The target in another test is desGla-desEGF1-FX T116A (human, UniProt P00742 126-488). Description: SPR (Biacore T200), antibody captured by anti-hIgG Fc, FX variant injected; % of wild-type binding. For orientation: Surface plasmon resonance follows binding to a sensor surface in real time, without labels.
A further test concerns the target desGla-desEGF1-FX A118S (human, UniProt P00742 126-488). The test is described as above.
The next test has as its target desGla-desEGF1-FX T127A (human, UniProt P00742 126-488). Described as above.
The target in a further test is desGla-desEGF1-FX S227A (human, UniProt P00742 126-488). The description is as above.
The target in the next test is desGla-desEGF1-FX E228A (human, UniProt P00742 126-488). The description is as above.
Another test has as its target desGla-desEGF1-FX F229A (human, UniProt P00742 126-488). Described as above.
Another test deals with desGla-desEGF1-FX E266A (human, UniProt P00742 126-488). The description is as above.
For a further test, the target named is desGla-desEGF1-FX R287A (human, UniProt P00742 126-488). The description is as above.
The next test addresses desGla-desEGF1-FX E305A (human, UniProt P00742 126-488). The description is as above.
The target of another test is desGla-desEGF1-FX L419A (human, UniProt P00742 126-488). The test is described as above.
Another test deals with desGla-desEGF1-FX K420A (human, UniProt P00742 126-488). The test is described as above.
A further test deals with desGla-desEGF1-FX T428A (human, UniProt P00742 126-488). The description is as above.
The target of test [3] is T2, wild-type desGla-desEGF1-FX (human, UniProt P00742 126-488).
T2 construct: Expressed in HEK293; also called WT; desGLA-desEGF1-hFX
Described as above.

The next test deals with desGla-desEGF1-FX H101A (human, UniProt P00742 126-488). The test is described as above.
The target of the next test is desGla-desEGF1-FX E103A (human, UniProt P00742 126-488). The description is as above.
A further test has as its target desGla-desEGF1-FX R113A (human, UniProt P00742 126-488). The test is described as above.
A further test deals with desGla-desEGF1-FX Y230A (human, UniProt P00742 126-488). Nature of the test: SPR (Biacore T200), antibody captured by anti-hIgG Fc, FX variant injected (10 µM); % of wild-type binding. Here is the method:
Identification of hot-spot epitope residues was done using a Biacore T200 instrument at 25° C. Anti-hIgG Fc antibody from the Human Antibody Capture Kit (GE Healthcare, Catalogue #BR100839) at 2 μg/ml was immobilized on a Series S Sensor Chip CM5 (GE Healthcare, Catalogue #BR100530) using standard amine coupling chemistry. The anti-FX antibody mAb4-6934 (monovalent variant of mAb1-6723) was injected at the flow rate of 5 μL/min for 30 sec and captured by the immobilized anti-hIgG Fc antibody. […] Binding data were analyzed using steady-state fitting according to the 1:1 model in the Biacore Evaluation Software 2.0 supplied by GE Healthcare. Binding data are reported as % binding of FX variants to the anti-FX antibody (monovalent mAb1-6723) relative to binding of the wild-type FX to the anti-FX antibody at 5 or 10 μM FX variants injected and are calculated according to the formula: […]

T1 sequence (P00740 47-191, chain 1 of 2): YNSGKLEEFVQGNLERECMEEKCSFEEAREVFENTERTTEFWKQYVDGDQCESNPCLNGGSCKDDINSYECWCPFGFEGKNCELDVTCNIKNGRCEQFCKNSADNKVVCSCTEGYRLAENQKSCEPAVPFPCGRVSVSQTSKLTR
T1 sequence (P00740 227-461, chain 2 of 2): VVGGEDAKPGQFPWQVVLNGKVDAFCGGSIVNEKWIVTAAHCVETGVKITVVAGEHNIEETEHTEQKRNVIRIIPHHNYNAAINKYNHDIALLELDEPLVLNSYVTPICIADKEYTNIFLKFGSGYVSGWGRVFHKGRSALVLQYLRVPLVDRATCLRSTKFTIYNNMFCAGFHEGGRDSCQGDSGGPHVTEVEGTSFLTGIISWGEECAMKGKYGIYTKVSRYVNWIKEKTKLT
Sequence of desGla-desEGF1-FX F229A (P00742 other isoform, or with tags, fused parts or gaps F229A F229A): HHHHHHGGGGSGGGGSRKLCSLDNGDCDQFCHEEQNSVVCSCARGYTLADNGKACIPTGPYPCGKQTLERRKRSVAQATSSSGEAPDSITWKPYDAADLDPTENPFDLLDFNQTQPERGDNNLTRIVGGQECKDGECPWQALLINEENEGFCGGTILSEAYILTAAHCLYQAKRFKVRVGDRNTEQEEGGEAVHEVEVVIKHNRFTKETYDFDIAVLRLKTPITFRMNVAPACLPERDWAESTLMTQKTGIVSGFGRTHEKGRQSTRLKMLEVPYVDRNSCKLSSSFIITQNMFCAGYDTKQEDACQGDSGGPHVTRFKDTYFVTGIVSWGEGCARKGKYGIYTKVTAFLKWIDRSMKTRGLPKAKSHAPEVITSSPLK
Sequence of desGla-desEGF1-FX L419A (P00742 other isoform, or with tags, fused parts or gaps L419A L419A): as the sequence (P00742 other isoform, or with tags, fused parts or gaps F229A F229A) above, with A160F, L350A counted along it
Sequence of desGla-desEGF1-FX R113A (P00742 other isoform, or with tags, fused parts or gaps R113A R113A): as the sequence (P00742 other isoform, or with tags, fused parts or gaps F229A F229A) above, with R44A, A160F counted along it
Sequence of desGla-desEGF1-FX E305A (P00742 other isoform, or with tags, fused parts or gaps E305A E305A): as the sequence (P00742 other isoform, or with tags, fused parts or gaps F229A F229A) above, with A160F, E236A counted along it
Sequence of desGla-desEGF1-FX A118S (P00742 other isoform, or with tags, fused parts or gaps A118S A118S): as the sequence (P00742 other isoform, or with tags, fused parts or gaps F229A F229A) above, with A49S, A160F counted along it
Sequence of desGla-desEGF1-FX E228A (P00742 other isoform, or with tags, fused parts or gaps E228A E228A): as the sequence (P00742 other isoform, or with tags, fused parts or gaps F229A F229A) above, with E159A, A160F counted along it
Sequence of desGla-desEGF1-FX T428A (P00742 other isoform, or with tags, fused parts or gaps T428A T428A): as the sequence (P00742 other isoform, or with tags, fused parts or gaps F229A F229A) above, with A160F, T359A counted along it
T2 sequence (P00742 other isoform, or with tags, fused parts or gaps): as the sequence (P00742 other isoform, or with tags, fused parts or gaps F229A F229A) above, with A160F counted along it
Sequence of desGla-desEGF1-FX Y230A (P00742 other isoform, or with tags, fused parts or gaps Y230A Y230A): as the sequence (P00742 other isoform, or with tags, fused parts or gaps F229A F229A) above, with A160F, Y161A counted along it
Sequence of desGla-desEGF1-FX T127A (P00742 other isoform, or with tags, fused parts or gaps T127A T127A): as the sequence (P00742 other isoform, or with tags, fused parts or gaps F229A F229A) above, with T58A, A160F counted along it
Sequence of desGla-desEGF1-FX K420A (P00742 other isoform, or with tags, fused parts or gaps K420A K420A): as the sequence (P00742 other isoform, or with tags, fused parts or gaps F229A F229A) above, with A160F, K351A counted along it
Sequence of desGla-desEGF1-FX H101A (P00742 other isoform, or with tags, fused parts or gaps H101A H101A): as the sequence (P00742 other isoform, or with tags, fused parts or gaps F229A F229A) above, with H32A, A160F counted along it
Sequence of desGla-desEGF1-FX T116A (P00742 other isoform, or with tags, fused parts or gaps T116A T116A): as the sequence (P00742 other isoform, or with tags, fused parts or gaps F229A F229A) above, with T47A, A160F counted along it
Sequence of desGla-desEGF1-FX R287A (P00742 other isoform, or with tags, fused parts or gaps R287A R287A): as the sequence (P00742 other isoform, or with tags, fused parts or gaps F229A F229A) above, with A160F, R218A counted along it
Sequence of desGla-desEGF1-FX S227A (P00742 other isoform, or with tags, fused parts or gaps S227A S227A): as the sequence (P00742 other isoform, or with tags, fused parts or gaps F229A F229A) above, with S158A, A160F counted along it
Sequence of desGla-desEGF1-FX E103A (P00742 other isoform, or with tags, fused parts or gaps E103A E103A): as the sequence (P00742 other isoform, or with tags, fused parts or gaps F229A F229A) above, with E34A, A160F counted along it
Sequence of desGla-desEGF1-FX E266A (P00742 other isoform, or with tags, fused parts or gaps E266A E266A): as the sequence (P00742 other isoform, or with tags, fused parts or gaps F229A F229A) above, with A160F, E197A counted along it

B1: mAb1-4861 (antibody, V domains shown)
VH: EVQLVESGGGLVQPGRSLKLSCAASGFTFDDYAMHWVRQVPGKGLEWVSGISWNGDNIGYVDSVKGRFTISRDNAKNSLYLQLNSLRAEDTALYYCVKSYGSGSFYNAFDSWGQGTLVTVSS
VL: DIQMTQSPSTLSASAGDRVTITCRASQSISSWLAWYQQKPGKAPKFLIYKASRLERGVPSRFSGSGSGTEFSLTISSLQPDDFATYYCLEYSSYIRTFGQGTKVEIK
For B1, in test [1], the “FXa generation rate at 3.2 nM mAb” value amounted to 434 pM/min, the “FXa generation rate at 6.3 nM mAb” value was found to be 415 pM/min, the “FXa generation rate at 12.5 nM mAb” value turned out to be 385 pM/min and the “FXa generation rate at 25 nM mAb” value turned out to be 382 pM/min. Moreover, in test [1], the “FXa generation rate at 50 nM mAb” value was found to be 352 pM/min, the “FXa generation rate at 100 nM mAb” value stood at 364 pM/min and the “FXa generation rate at 200 nM mAb” value turned out to be 411 pM/min. Further, in test [2], the “Peak stimulatory activity relative to 224F3” value was 21.7 fold relative to 224F3.

B2: mAb4-6934 (monovalent one-armed variant of mAb1-6723) (antibody, V domains shown)
VH: EVQLVQSGAEVKKPGESLRISCKGSGYSFTTSWIVWVRQMPGKGLEWMGMIDPSDSFTSYSPSFQGHVTISADKSISTAYLQWSSLKASDTAMYYCARLHYYHSEEFDVWGQGTLVTVSS
VL: EIVLTQSPGTLSLSPGERATLSCRASQSVSSSYLAWYQQKPGQAPRLLIYGASSRARGIPDRFSGSGSGTDFTLTISRLEPEDFAVYYCQQFGSSRLFTFGQGTKLEIK
notes: also called monovalent mAb1-6723
Consider B2, for which the “Binding (%) relative to wild-type” value with desGla-desEGF1-FX T116A amounted to 114%; with desGla-desEGF1-FX A118S it was 102%; with desGla-desEGF1-FX T127A, 113%; with desGla-desEGF1-FX S227A, 66%; in the test with desGla-desEGF1-FX E228A, 80%; with desGla-desEGF1-FX F229A it was 99%. Moreover, the “Binding (%) relative to wild-type” value is 112% in the test with desGla-desEGF1-FX E266A; 66% with desGla-desEGF1-FX R287A; 97% with desGla-desEGF1-FX E305A; 50% with desGla-desEGF1-FX L419A; 23% with desGla-desEGF1-FX K420A; 81% with desGla-desEGF1-FX T428A. The “Binding (%) relative to wild-type” value in test [3] was 100%; in the test with desGla-desEGF1-FX H101A, 51%; in the test with desGla-desEGF1-FX E103A, 71%; with desGla-desEGF1-FX R113A, 28%; with desGla-desEGF1-FX Y230A, 1%.
